Assay results from the nanobody polyreactivity screen of Harvey et al. (2022).

Experiment: yeast display, Sf9 membrane polyspecificity reagent, FACS + sequencing; frameworks hold sequencing errors
Method in brief: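 Sorting gates, low and high (top ~1%), were placed on anti-HA fluorescence to track expression and on streptavidin fluorescence to track reagent binding. A clone's polyreactivity label is taken from the gate it came out of. The reagent was 10% biotinylated, detergent-solubilized Sf9 membrane, applied for 1 hour at 4 °C to galactose-induced yeast display cells.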

QVQLVESGGGLVQAGGSLRLSCAASGRTFYYYAMGWHRQAPGKERELVARIRSGGSTNYADSVKGRFTISRDNAKNTVYLQMNSLKPEDTAVYYCAAVRPPTPSRRREDYWGQGTQVTVSS
polyreactivity (PSR sort gate): low polyreactivity

QVQLVESGGGLVQAGGSLRLSCAASGSIFRLYAMGWYRQAPGKERELVAAITGRGTSTYYADSVKGRFTISRDNAKNTVYLQMNSLKPEDTAVYYCAARLFKNSGTTYDRYGYWGQGTQVTVSS
polyreactivity (PSR sort gate): high polyreactivity

QVQLVESWGGLVQAGGSLRLSCAASGFIFRYYAMGWYRQAPGKERELVAAISWSGGSTYYADSVKGRFTISRDNAKYTVYLQMNSLKPVDTAVYYCAADKRGSVYLSSFWMDYWGQGSQVTVSS
polyreactivity (PSR sort gate): low polyreactivity

QVQLVESGGGLVQAGGSLRLSCAASGSTIVLNDKRCYRQAPGKERELVAAITWSGGSTYYADSVKGRFTISRDNAKNTVYLQMNSLKPEDTAVYYCNVDYYGWPYWYEYDYWGQGTQVTVSS
polyreactivity (PSR sort gate): high polyreactivity

QVQLVESGGGLVQAGGSLRLSCAASGSIIDLNAMGWYRQAPGKERDLVAAISSGGGTYYADSVKGRFTISRDNAKNNVYLQMNSLKPEDTAVYYCAAIGYRVYRYYRGRTYDYWGQGTQVTVSS
polyreactivity (PSR sort gate): high polyreactivity

QVQLVESGGGLVQAGGSLRLSCAASGSTFILYAMGWYRHAPGKERELVAAISRSTGITYYADSVKGRFTISRDNAKNTVYLQMNSLKPEDTAGYYCAADAWGYNDYDASYSTGYEYWGQGTQVTVSS
polyreactivity (PSR sort gate): high polyreactivity

QVQLVESGGGLVQAGGSLRLSCAASGSTFAGFTMRWYRQAPGKERELVAAITTRGGRTYYADSVKGRFTISRDNAKNTVYLQMNSLKPEDTAVYYCAAVSRYYAELMYYWGQGTQVTVSS
polyreactivity (PSR sort gate): high polyreactivity

QVQLVESGGGLVQAVGSLRLSCAASGSTFYPYAMGWYRQSPGKERELVAAISISGGITYYADSVKVRFTISRDNAKNTVYLQMNSLKPEDTAVYYCAAEYLAVSGYWYDYWGQGTQVTVSS
polyreactivity (PSR sort gate): high polyreactivity

QVQLVESGGGLVQAGGSLRLSCADSGRTFYHYAMGWYRQAPGKERELVATITSSGGNTYYADSVKGRFTISRDNAKNTVYLQINSLKPEDTAVYYCAADWFVYQYSFGSSEYYYWGQGTQVTVSS
polyreactivity (PSR sort gate): low polyreactivity

QVQLVESGGGLVQAGGSLRLSCAASGSTVEYYAMGWYRQAPGKERELFAAISSGPSTTYADSVKGRFTISRDNAKNTVYLQMYSLKREDTAVYYCARLDGTTQALFGYDYWGQGTQVTVSS
polyreactivity (PSR sort gate): low polyreactivity

QVQLVESGGGLVQARGSLRLSCAASGYIFAVYAMGWYRQANGKERELVAAITWSGGRTYYADSVKGRFTISLDNAKNTVYLQMNSLKPEDTAVYYCNARARSRKFYYWGQGTQVTVSS
polyreactivity (PSR sort gate): high polyreactivity

QGQRVESGGGLVQAGGSLRLSCAASGRIFTFYAMGWYRPAPGKERELVAAITWGDGSTYYADSVKGRFTISRDNAKNTVYLQMNSLKPEDTAVYYCNKTYIDTTVYVVIMDYWGQGTQVTVSS
polyreactivity (PSR sort gate): low polyreactivity

QVQLVVSGGGLVQAGGSLRLSCAASGFTFIVNAMGWYRQAPGKERELVAAISWNGGSTYYADSVKGRFTISRDNAKNTVYLQMNSLKPEATAVYYCAAVRYNSRGSTTPSEMYYWGQGTQVTVSS
polyreactivity (PSR sort gate): low polyreactivity

QVQLVESGGGLVQAGGSLRLSCAASGRIFLSNALGWYSQAPGKERELVAALSWTGGSTYYADSVTGRFTISRDNAKNTVYLQMNSLKPEDTAVYYCAASTVGQTYSYYVDTYDYWGQGTQVTVSS
polyreactivity (PSR sort gate): low polyreactivity

QVQLEESGGGLFQAGGSLRLSCAASGRIFDPYAMGWYRQAPGKERDLVATITLRGGITYYADSVKGRFTISRDNAKNTVYLQMNSLKPEDTAVYYCAKKVRSYVRWEYDYWGQGTQVTVSS
polyreactivity (PSR sort gate): low polyreactivity

QVQLVESGGGLVQAGGSLRLSCAASGRIFDTNAMGWYRQAPGKERELVAAISSSGGRTYYADSVKGRFTISRDNAKNTVYLQMNSLRPEDTAVYYCARVPITKDQYSHYYYWGQGTQVTVSS
polyreactivity (PSR sort gate): high polyreactivity

QVQLVESGGGLVQAGGSLRLSCAASGSILSYYAMGWYRQAPGKEREFVAAISSGGGTYYADSVKGRFTISRDNAKNTVYLQMNSLKPEDTAVYYCNAEIWTEGGYWGQGTQVTVSS
polyreactivity (PSR sort gate): low polyreactivity
